# Experimental data published in paper PMC7376121, “In-Lipid Structure of Pressure-Sensitive Domains Hints Mechanosensitive Channel Functional Diversity” (Biophysical Journal, 2020).
# Numbering of substitutions follows the chain as printed. Names and notes keep the numbering of the source.
# B1: Mycobacterium tuberculosis MscL Y87C, MTSSL spin-labelled (TbMscL Y87R1) (natural protein)
# chain: MLKGFKEFLARGNIVDLAVAVVIGTAFTALVTKFTDSIITPLINRIGVNAQSDVGILRIGIGGGQTIDLNVLLSAAINFFLIAFAVCFLVVLPYNTLRKKGEVEQPGDTQVVLLTEIRDLLAQTNGDSPGRHGGRGTPSPTDGPRASTESQ
# modifications: MTSSL spin label on the cysteine at 87 (R1)
# notes: also called TbY87R1
# B2: Mycobacterium tuberculosis MscL F88C, MTSSL spin-labelled (TbMscL F88R1) (natural protein)
# chain: B1 chain with C87Y, F88C
# modifications: MTSSL spin label on the cysteine at 88 (R1)
# notes: also called TbF88R1
# B3: Mycobacterium tuberculosis MscL L89C, MTSSL spin-labelled (TbMscL L89R1) (natural protein)
# chain: B1 chain with C87Y, L89C
# modifications: MTSSL spin label on the cysteine at 89 (R1)
# notes: also called TbL89R1
# Target: the molecule itself
# Assay: PELDOR/DEER; spin-labelled single-cysteine channel in DDM detergent solution (50 mM sodium phosphate pH 7.5, 300 mM NaCl, 0.05% DDM), diluted 1:1 with deuterated ethylene glycol, flash frozen; Q band, 50 K; distances between the labels of the subunits of one channel
row,Protein,stoichiometry N
1,B1,5
2,B2,5
3,B3,5
